According to paper PMC9486129, “An evolutionary divergent thermodynamic brake in ZAP-70 fine-tunes the kinetic proofreading in T cells” (The Journal of Biological Chemistry, 2022):

Tests used:
[1] = molecular target: ZAP-70 tandem SH2 domain R192A (1-256); assay: ITC; Malvern PEAQ-ITC, 20 °C; C-SH2 mutant tSH2 (R192A, printed R190A in the methods) in 20 mM Hepes pH 8.2, 150 mM NaCl, 5 mM β-mercaptoethanol; titrated with 300 μM peptide; one-site binding model; constant printed under the column Kd2
ZAP-70 tSH2 WT (1–256) [2] = assay: stopped-flow fluorescence; pre-steady-state tryptophan fluorescence, 10 °C; 100 nM tSH2 domain mixed with 30 μM ITAM peptide in 20 mM Tris pH 8.0, 150 mM NaCl, 5% glycerol, 5 mM β-mercaptoethanol; 1 s (fast) and 200 s (slow) transients; observed rates from one-site association fit
ZAP-70 tSH2 WT (1–256) [3] = assay: other fluorescence titration; steady-state intrinsic tryptophan fluorescence, 25 °C; 0.5 μM tSH2 domain titrated with ITAM peptide; excitation 295 nm, emission 300-400 nm; Hill equation fit
ZAP-70 tSH2 R39A [4] = assay: stopped-flow fluorescence; pre-steady-state tryptophan fluorescence, 10 °C; 100 nM tSH2 domain mixed with 30 μM ITAM peptide in 20 mM Tris pH 8.0, 150 mM NaCl, 5% glycerol, 5 mM β-mercaptoethanol; 1 s (fast) and 200 s (slow) transients; observed rates from one-site association fit
ZAP-70 tSH2 R192A = assay: as above
ZAP-70 tSH2 R43P = assay: as above
ZAP-70 tSH2 F117A = assay: as above
ZAP-70 tSH2 R39A [5] = assay: other fluorescence titration; steady-state intrinsic tryptophan fluorescence, 25 °C; 0.5 μM tSH2 domain titrated with ITAM peptide; excitation 295 nm, emission 300-400 nm; Hill equation fit

Row | Substance | kobs fast (ZAP-70 tSH2 WT (1–256) [2]) [s⁻¹] | kobs slow (ZAP-70 tSH2 WT (1–256) [2]) [s⁻¹] | Kd1 (ZAP-70 tSH2 WT (1–256) [3]) [nM] | other results
1 | doubly-phosphorylated ITAM-ζ1 peptide with E13A |  |  |  | Kd [1]: 9.8 µM
2 | ITAM-Y2P-ζ1 E13A (peptide) | 24.4 | 0.022 |  | 
3 | doubly phosphorylated ITAM-ζ3 peptide (ITAM-Y2P-ζ3) (from UniProt P20963 131-159) | 21.4 | 0.012 | 6.8 | 

Continued, in another order:

Row | kobs fast (ZAP-70 tSH2 WT (1–256) [2]) [s⁻¹] | kobs slow (ZAP-70 tSH2 WT (1–256) [2]) [s⁻¹] | Kd1 (ZAP-70 tSH2 WT (1–256) [3]) [nM] | Substance | other results
4 | 28.6 |  | 3.7 | single phosphotyrosine ITAM-ζ1 peptide (ITAM-YP-ζ1) (from UniProt P20963 61-89) | 
5 | 23.9 | 0.262 |  | doubly phosphorylated ITAM-ζ1 peptide (ITAM-Y2P-ζ1) (from UniProt P20963 61-89) | kobs fast (ZAP-70 tSH2 R39A [4]): 24.8 s⁻¹; kobs slow (ZAP-70 tSH2 R192A): 0.006 s⁻¹; kobs fast (ZAP-70 tSH2 R43P): 28 s⁻¹; kobs slow (ZAP-70 tSH2 R43P): 2.25 s⁻¹; kobs fast (ZAP-70 tSH2 F117A): 21.8 s⁻¹; kobs slow (ZAP-70 tSH2 F117A): 0.0517 s⁻¹; Kd1 (ZAP-70 tSH2 R39A [5]): 8 nM
